Test results: patent US20250084142A1 (INTARCIA THERAPEUTICS, published 2025)
Starred links: 1 amine or outer side, 2 acyl side, 3 side chain; linkers in the order of their positions; H or OH if unused. Non-standard residues stand in square brackets, D forms with d. Groups on a side chain read outwards from the residue. No end group written: not given here. *: point of attachment. C20 diacid = O=C(O)CCCCCCCCCCCCCCCCCCC(=O)*; γGlu = O=C(O)[C@H](CCC(=O)[*:2])N[*:1]; NMeY = CN[C@@H](Cc1ccc(O)cc1)C(=O)O

T1: NPY2R
T1 sequence (P49146 1-381, species assumed, looked up): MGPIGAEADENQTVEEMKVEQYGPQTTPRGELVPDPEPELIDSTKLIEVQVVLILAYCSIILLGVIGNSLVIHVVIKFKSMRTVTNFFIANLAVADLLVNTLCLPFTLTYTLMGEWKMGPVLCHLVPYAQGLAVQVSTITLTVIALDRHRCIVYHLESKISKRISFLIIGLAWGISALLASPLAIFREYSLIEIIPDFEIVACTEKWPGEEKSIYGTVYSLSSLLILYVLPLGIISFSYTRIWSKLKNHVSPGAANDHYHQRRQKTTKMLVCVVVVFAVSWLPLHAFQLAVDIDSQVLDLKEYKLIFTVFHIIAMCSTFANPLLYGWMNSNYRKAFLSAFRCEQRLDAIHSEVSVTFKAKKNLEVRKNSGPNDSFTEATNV

T2: NPY5R
T2 sequence (Q15761 1-445, species assumed, looked up): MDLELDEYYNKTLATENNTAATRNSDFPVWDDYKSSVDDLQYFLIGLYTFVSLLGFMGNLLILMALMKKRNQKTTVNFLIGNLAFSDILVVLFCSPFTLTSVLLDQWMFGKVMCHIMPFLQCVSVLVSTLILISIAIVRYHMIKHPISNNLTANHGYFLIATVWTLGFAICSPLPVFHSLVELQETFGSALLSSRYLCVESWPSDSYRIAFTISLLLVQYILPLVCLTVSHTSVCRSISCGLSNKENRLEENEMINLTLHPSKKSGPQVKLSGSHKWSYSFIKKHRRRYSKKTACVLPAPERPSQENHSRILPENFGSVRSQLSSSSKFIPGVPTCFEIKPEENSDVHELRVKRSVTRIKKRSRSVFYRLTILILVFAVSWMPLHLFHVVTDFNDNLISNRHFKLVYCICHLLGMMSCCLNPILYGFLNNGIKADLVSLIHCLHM


Key:
NPY2R = target: T1, NPY2R; assay: cell-based or functional assay
NPY5R = target: T2, NPY5R; assay: cell-based or functional assay

Binder | NPY2R pEC50 (NPY2R) | NPY5R pEC50 (NPY5R)
PKPEAPGK([γGlu-γGlu-C20 diacid])DASPEEWNRYYADLRHYLNWLTRQRF-NH2 [Compound A13] | 10.2 -Log(EC50, M) | 8.7 -Log(EC50, M)
PKPEAPGKDASPEEWK([γGlu-γGlu-C20 diacid])RYYADARHYLNWLTRQR[NMeY]-NH2 (N-terminus assumed; SMILES CC(C)C[C@H](NC(=O)[C@H](Cc1ccc(O)cc1)NC(=O)[C@H](Cc1c[nH]cn1)NC(=O)[C@H](CCCNC(=N)N)NC(=O)[C@H](C)NC(=O)[C@H](CC(=O)O)NC(=O)[C@H](C)NC(=O)[C@H](Cc1ccc(O)cc1)NC(=O)[C@H](Cc1ccc(O)cc1)NC(=O)[C@H](CCCNC(=N)N)NC(=O)[C@H](CCCCNC(=O)CC[C@H](NC(=O)CC[C@H](NC(=O)CCCCCCCCCCCCCCCCCCC(=O)O)C(=O)O)C(=O)O)NC(=O)[C@H](Cc1c[nH]c2ccccc12)NC(=O)[C@H](CCC(=O)O)NC(=O)[C@H](CCC(=O)O)NC(=O)[C@@H]1CCCN1C(=O)[C@H](CO)NC(=O)[C@H](C)NC(=O)[C@H](CC(=O)O)NC(=O)[C@H](CCCCN)NC(=O)CNC(=O)[C@@H]1CCCN1C(=O)[C@H](C)NC(=O)[C@H](CCC(=O)O)NC(=O)[C@@H]1CCCN1C(=O)[C@H](CCCCN)NC(=O)[C@@H]1CCCN1)C(=O)N[C@@H](CC(N)=O)C(=O)N[C@@H](Cc1c[nH]c2ccccc12)C(=O)N[C@@H](CC(C)C)C(=O)N[C@H](C(=O)N[C@@H](CCCNC(=N)N)C(=O)N[C@@H](CCC(N)=O)C(=O)N[C@@H](CCCNC(=N)N)C(=O)N(C)[C@@H](Cc1ccc(O)cc1)C(N)=O)[C@@H](C)O) [Compound A9] | 9.6 -Log(EC50, M) | 6 -Log(EC50, M)
PKPEAPK([γGlu-γGlu-C20 diacid])KDASPEEWNRYYADARHYLNWLTRQR[NMeY]-NH2 (N-terminus assumed; SMILES CC(C)C[C@H](NC(=O)[C@H](Cc1ccc(O)cc1)NC(=O)[C@H](Cc1c[nH]cn1)NC(=O)[C@H](CCCNC(=N)N)NC(=O)[C@H](C)NC(=O)[C@H](CC(=O)O)NC(=O)[C@H](C)NC(=O)[C@H](Cc1ccc(O)cc1)NC(=O)[C@H](Cc1ccc(O)cc1)NC(=O)[C@H](CCCNC(=N)N)NC(=O)[C@H](CC(N)=O)NC(=O)[C@H](Cc1c[nH]c2ccccc12)NC(=O)[C@H](CCC(=O)O)NC(=O)[C@H](CCC(=O)O)NC(=O)[C@@H]1CCCN1C(=O)[C@H](CO)NC(=O)[C@H](C)NC(=O)[C@H](CC(=O)O)NC(=O)[C@H](CCCCN)NC(=O)[C@H](CCCCNC(=O)CC[C@H](NC(=O)CC[C@H](NC(=O)CCCCCCCCCCCCCCCCCCC(=O)O)C(=O)O)C(=O)O)NC(=O)[C@@H]1CCCN1C(=O)[C@H](C)NC(=O)[C@H](CCC(=O)O)NC(=O)[C@@H]1CCCN1C(=O)[C@H](CCCCN)NC(=O)[C@@H]1CCCN1)C(=O)N[C@@H](CC(N)=O)C(=O)N[C@@H](Cc1c[nH]c2ccccc12)C(=O)N[C@@H](CC(C)C)C(=O)N[C@H](C(=O)N[C@@H](CCCNC(=N)N)C(=O)N[C@@H](CCC(N)=O)C(=O)N[C@@H](CCCNC(=N)N)C(=O)N(C)[C@@H](Cc1ccc(O)cc1)C(N)=O)[C@@H](C)O) [Compound A7] | 9.7 -Log(EC50, M) | 6 -Log(EC50, M)
PKPEAPGKDASPK([γGlu-γGlu-C20 diacid])EWNRYYADARHYLNWLTRQR[NMeY]-NH2 (N-terminus assumed; SMILES CC(C)C[C@H](NC(=O)[C@H](Cc1ccc(O)cc1)NC(=O)[C@H](Cc1c[nH]cn1)NC(=O)[C@H](CCCNC(=N)N)NC(=O)[C@H](C)NC(=O)[C@H](CC(=O)O)NC(=O)[C@H](C)NC(=O)[C@H](Cc1ccc(O)cc1)NC(=O)[C@H](Cc1ccc(O)cc1)NC(=O)[C@H](CCCNC(=N)N)NC(=O)[C@H](CC(N)=O)NC(=O)[C@H](Cc1c[nH]c2ccccc12)NC(=O)[C@H](CCC(=O)O)NC(=O)[C@H](CCCCNC(=O)CC[C@H](NC(=O)CC[C@H](NC(=O)CCCCCCCCCCCCCCCCCCC(=O)O)C(=O)O)C(=O)O)NC(=O)[C@@H]1CCCN1C(=O)[C@H](CO)NC(=O)[C@H](C)NC(=O)[C@H](CC(=O)O)NC(=O)[C@H](CCCCN)NC(=O)CNC(=O)[C@@H]1CCCN1C(=O)[C@H](C)NC(=O)[C@H](CCC(=O)O)NC(=O)[C@@H]1CCCN1C(=O)[C@H](CCCCN)NC(=O)[C@@H]1CCCN1)C(=O)N[C@@H](CC(N)=O)C(=O)N[C@@H](Cc1c[nH]c2ccccc12)C(=O)N[C@@H](CC(C)C)C(=O)N[C@H](C(=O)N[C@@H](CCCNC(=N)N)C(=O)N[C@@H](CCC(N)=O)C(=O)N[C@@H](CCCNC(=N)N)C(=O)N(C)[C@@H](Cc1ccc(O)cc1)C(N)=O)[C@@H](C)O) [Compound A8] | 9.6 -Log(EC50, M) | 7.1 -Log(EC50, M)
PKPK([γGlu-γGlu-C20 diacid])APGKDASPEEWNRYYADARHYLNWLTRQR[NMeY]-NH2 (N-terminus assumed; SMILES CC(C)C[C@H](NC(=O)[C@H](Cc1ccc(O)cc1)NC(=O)[C@H](Cc1c[nH]cn1)NC(=O)[C@H](CCCNC(=N)N)NC(=O)[C@H](C)NC(=O)[C@H](CC(=O)O)NC(=O)[C@H](C)NC(=O)[C@H](Cc1ccc(O)cc1)NC(=O)[C@H](Cc1ccc(O)cc1)NC(=O)[C@H](CCCNC(=N)N)NC(=O)[C@H](CC(N)=O)NC(=O)[C@H](Cc1c[nH]c2ccccc12)NC(=O)[C@H](CCC(=O)O)NC(=O)[C@H](CCC(=O)O)NC(=O)[C@@H]1CCCN1C(=O)[C@H](CO)NC(=O)[C@H](C)NC(=O)[C@H](CC(=O)O)NC(=O)[C@H](CCCCN)NC(=O)CNC(=O)[C@@H]1CCCN1C(=O)[C@H](C)NC(=O)[C@H](CCCCNC(=O)CC[C@H](NC(=O)CC[C@H](NC(=O)CCCCCCCCCCCCCCCCCCC(=O)O)C(=O)O)C(=O)O)NC(=O)[C@@H]1CCCN1C(=O)[C@H](CCCCN)NC(=O)[C@@H]1CCCN1)C(=O)N[C@@H](CC(N)=O)C(=O)N[C@@H](Cc1c[nH]c2ccccc12)C(=O)N[C@@H](CC(C)C)C(=O)N[C@H](C(=O)N[C@@H](CCCNC(=N)N)C(=O)N[C@@H](CCC(N)=O)C(=O)N[C@@H](CCCNC(=N)N)C(=O)N(C)[C@@H](Cc1ccc(O)cc1)C(N)=O)[C@@H](C)O) [Compound A6] | 8.9 -Log(EC50, M) | 7.7 -Log(EC50, M)
